Test results as given in patent US12428492B2, “Chimeric antigen receptors that bind to prostate specific membrane antigen” (Albert-Ludwigs-Universitaet Freiburg, priority 2019, dated 2025).

B1: A5-based CAR: 2nd generation anti-PSMA CAR: scFv A5, Fc IgG1 hinge, transmembrane domain, CD28 costimulatory domain, CD3ζ; SEQ ID NO:39 (protein)
chain: MDFQVQIFSFLLISASVIMSRDVKLVESGGGLVKPGESLKLSCIASGFTFSDYYMYWVRQTPEKRLEWVAIISDGGYYTYYSDIIKGRFTISRDNAKNNLYLQMSSLKSEDTAMYYCTRGFPLLRHGAMDYWGLGTSVTVSSGGGGSGGGGSGGGGSDIQMTQSPKFMSTSVGDRVSVTCKASQNVDTNVAWYQQKPGQSPKALIYSASYRYSDVPDRFTGSESGTDFTLTISNVQSEDLAEYFCQQYDSYPYTFGGGTKLEIKSDPAEPKSPDKTHTCPPCPAPPVAGPSVFLFPPKPKDTLMIARTPEVTCVVVDVSHEDPEVKFNWYVDGVEVHNAKTKPREEQYNSTYRVVSVLTVLHQDWLNGKEYKCKVSNKALPAPIEKTISKAKGQPREPQVYTLPPSRDELTKNQVSLTCLVKGFYPSDIAVEWESNGQPENNYKTTPPVLDSDGSFFLYSKLTVDKSRWQQGNVFSCSVMHEALHNHYTQKSLSLSPGKKDPKFWVLVVVGGVLACYSLLVTVAFIIFWVRSKRSRLLHSDYMNMTPRRPGPTRKHYQAYAAARDFAAYRSLRVKFSRSADAPAYQQGQNQLYNELNLGRREEYDVLDKRRGRDPEMGGKPRRKNPQEGLYNELQKDKMAEAYSEIGMKGERRRGKGHDGLYQGLSTATKDTYDALHMQALPPR
modifications: A5CAR28
B2: A5: single-chain variable fragment generated by phage display from mAb 3/A12; SEQ ID NO:42 (protein, listed as Mus musculus)
scFv: DVKLVESGGGLVKPGESLKLSCIASGFTFSDYYMYWVRQTPEKRLEWVAIISDGGYYTYYSDIIKGRFTISRDNAKNNLYLQMSSLKSEDTAMYYCTRGFPLLRHGAMDYWGLGTSVTVSSGGGGSGGGGSGGGGSDIQMTQSPKFMSTSVGDRVSVTCKASQNVDTNVAWYQQKPGQSPKALIYSASYRYSDVPDRFTGSESGTDFTLTISNVQSEDLAEYFCQQYDSYPYTFGGGTKLEIK
modifications: murine scFv A5

Legend:
[1] = tested on: PSMA positive C4-2 and LNCaP tumor cells; experiment: Antigen-specific activation (CD69) of CAR expressing Jurkat cells by PSMA positive tumor cells; type: cell-based
Experimental: Panel (C) presents the antigen-specific-activation profile, CAR expressing Jurkat cells were stimulated for 24 h at an 1:1 effector-to-target ratio with either PSMA positive, PD-L1 negative C4-2 tumor cells (PSMA+/PDL1−), or PSMA positive, PD-L1 positive LNCaP tumor cells (PSMA+/PDL1+). As a negative control, CAR cells were co-cultured with PSMA negative DU145 tumor cells (PSMA−). Following 24 h stimulation, cells were harvested and activation profile was assessed by evaluating the percentage of cells that are positive for the activation marker CD69. Statistically significant differences are indicated by ****(P<0.001).
Panel (D) depicts the characterization of employed prostate cancer cell lines. The extent of PSMA target antigen expression (left) and PD-L1 (CD274) expression (right) was assessed on C4-2, LNCaP and DU145 prostate cell lines. For flow cytometric analysis, cells were either stained with 3/F11 1 antibody (anti-PSMA) or an anti-CD274 antibody. UT, untransduced T cells; PD-L1, Programmed cell death ligand 1; PSMA; prostate specific membrane antigen. As shown in panel D (left), both C4-2 and LNCaP tumor cells express the PSMA antigen while the DU145 is negative for the PSMA antigen. […]
The antigen-specific activation of transduced Jurkat T cells was measured by monitoring the expression of the activation marker CD69 upon antigen stimulation FIG. 9C. […]

PSMA-expressing cells = PSMA-expressing cells (Homo sapiens, UniProt Q04609); settings: cited from earlier work
Sequence of PSMA-expressing cells (Q04609 whole entry): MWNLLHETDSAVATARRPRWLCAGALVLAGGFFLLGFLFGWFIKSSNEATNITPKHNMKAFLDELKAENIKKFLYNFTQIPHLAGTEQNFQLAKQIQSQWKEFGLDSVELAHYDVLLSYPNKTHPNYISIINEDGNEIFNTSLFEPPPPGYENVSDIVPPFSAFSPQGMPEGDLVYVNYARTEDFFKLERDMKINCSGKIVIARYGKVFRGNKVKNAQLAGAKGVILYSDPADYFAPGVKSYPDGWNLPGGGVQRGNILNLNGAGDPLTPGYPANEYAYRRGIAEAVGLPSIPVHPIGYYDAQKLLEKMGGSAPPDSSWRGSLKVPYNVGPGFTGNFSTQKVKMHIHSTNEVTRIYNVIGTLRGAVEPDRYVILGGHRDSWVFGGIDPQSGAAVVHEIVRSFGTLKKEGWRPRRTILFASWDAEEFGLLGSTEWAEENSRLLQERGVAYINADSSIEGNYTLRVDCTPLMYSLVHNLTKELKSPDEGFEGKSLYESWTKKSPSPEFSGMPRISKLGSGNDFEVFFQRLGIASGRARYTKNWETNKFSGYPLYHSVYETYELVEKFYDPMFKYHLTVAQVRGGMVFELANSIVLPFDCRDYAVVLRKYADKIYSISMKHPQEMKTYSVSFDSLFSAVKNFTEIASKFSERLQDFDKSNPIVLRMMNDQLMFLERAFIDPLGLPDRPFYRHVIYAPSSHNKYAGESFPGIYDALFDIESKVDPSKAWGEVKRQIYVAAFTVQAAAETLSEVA

Molecule | CD69-positive cells ([1]; 24 h, 1:1 effector-to-target ratio, C4-2 or LNCaP) | activation of Jurkat cells upon antigen-specific sensitization ([1]; CD69) | Kd (PSMA-expressing cells)
B1 | about 70% | massive activation | –
B2 | – | – | ~33 nM
